Test results reported in patent publication US10144929B2, “Polypeptide inhibitors of Smad3 polypeptide activities” (Mayo Foundation for Medical Education and Research, priority 2016, dated 2018).

Assays:
Format in all cases: cell-based
[1] = biological target: T1, pSmad3 (Mus musculus, UniProt Q8BUN5); test: Nuclear import of pSmad3 (nuclear fractions Western, immunofluorescence) in AKR-2B cells; details: 90 minutes transduction, TGFβ 5 ng/mL 1 hour
T1 construct: endogenous in cells; host or cells: AKR-2B cells
T1 sequence (Q8BUN5 whole entry): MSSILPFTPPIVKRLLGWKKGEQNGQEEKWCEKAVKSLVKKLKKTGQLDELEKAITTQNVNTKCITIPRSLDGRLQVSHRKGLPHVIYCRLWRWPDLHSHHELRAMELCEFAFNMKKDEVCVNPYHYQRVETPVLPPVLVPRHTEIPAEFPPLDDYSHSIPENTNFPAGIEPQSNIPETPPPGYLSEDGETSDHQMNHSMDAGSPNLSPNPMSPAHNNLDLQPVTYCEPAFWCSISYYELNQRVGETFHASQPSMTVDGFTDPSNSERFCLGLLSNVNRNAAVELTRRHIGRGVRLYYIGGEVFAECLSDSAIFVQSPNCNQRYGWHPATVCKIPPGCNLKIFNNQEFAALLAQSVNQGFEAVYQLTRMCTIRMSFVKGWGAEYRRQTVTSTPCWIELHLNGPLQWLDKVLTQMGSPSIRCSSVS
Procedure: FIGS. 1A-C. SH3 domain of sorting nexin 9 (SNX9) specifically binds pSmad3 and prevents nuclear import. (A) Cartoon depicting domains in full length (FL) SNX9 and constructs used for GST pull down assays. Lysates from AKR-2B cells untreated (−) or stimulated (+) for 45 minutes with 5 ng/mL TGFβ were incubated with GST beads or the indicated fusion polypeptides immobilized on GST beads. Bound polypeptides were eluted and assessed by Western analysis for pSmad3 or pSmad2. Cell lysate reflects signal obtained from 10 μg total protein. (B) AKR-2B cells were transduced for 90 minutes with the indicated concentrations of the TAT-SNX9(SH3) fusion polypeptides. […] Quantitation of nuclear pSmads was performed with Image J software and represents the mean+/−sd of two experiments (Right). […] Quantitation of nuclear Smad3 from 30 cells in each of two experiments (Right).
(§1) FIGS. 3A-E. Inhibition of Smad3 signaling by a defined region of the SH3 domain in SNX9. […] (B) Nuclear fractions were prepared and assessed as in FIG. 1B following transduction with the indicated TAT-SNX9(SH3) fusion polypeptide (Left). Quantitation (mean+/−sd) of nuclear pSmad2 or pSmad3 from 2 experiments (Right). (C) Immunofluorescence of nuclear Smad3 was determined as in FIG. 1C from 30 cells in each of two experiments in the absence (−) or presence (+) of 5 ng/mL TGFβ and the indicated TAT-SNX9(SH3) fusion polypeptide (1.5 μM). […]

[2] = system: Smad3 targets (PAI-1, CTGF, Smad7); test: RT-PCR/qPCR/Western of Smad3 responsive genes in AKR-2B cells; details: 5 ng/mL TGFβ, 24 hours
Procedure: (§2) FIGS. 2A-C. TAT-SH3 inhibits Smad3-dependent responses. (A) AKR-2B cells were transiently transfected with a Smad3 (3TP), Smad2 (ARE), or Smad1/5/8 (BRE) reporter construct, and luciferase activity determined following 12 hours incubation in the absence (−) or presence (+) of the indicated ligand (5 ng/mL TGFβ; 10 ng/mL BMP4) or TAT-SNX9(SH3) fusion polypeptide (1.5 μM). Data represent the mean+/−SEM of three experiments. (B) RT-PCR analysis of Smad3 (PAI-1 and CTGF) and Smad2 (MMP2) responsive gene following 24 hour treatment of AKR-2B cells with the indicated concentration of TAT-SNX9(SH3) fusion polypeptide or 5 ng/mL TGFβ. Loading was verified by GAPDH expression. (C) Soft agar colony formation was performed following seven days growth in the presence (+) or absence (−) of TGFβ (10 ng/mL) or the indicated TAT-SNX9(SH3) fusion polypeptide (1.5 μM). […]
as §1

[3] = system: AKR-2B cells; test: Soft agar colony formation (anchorage-independent growth, AIG); details: 1.5 μM polypeptide, TGFβ 10 ng/mL, seven days
Procedure: as §2, §1

[4] = biological target: T2, pSmad2 (Mus musculus, UniProt Q62432); test: Nuclear import of pSmad2 (nuclear fractions Western) in AKR-2B cells; details: 90 minutes transduction, TGFβ 5 ng/mL 1 hour
T2 construct: nuclear fractions were isolated, and Western blotted for pSmad2, pSmad3, or histone deacetylase 1 (HDAC); endogenous in cells; host or cells: AKR-2B cells
T2 sequence (Q62432 whole entry): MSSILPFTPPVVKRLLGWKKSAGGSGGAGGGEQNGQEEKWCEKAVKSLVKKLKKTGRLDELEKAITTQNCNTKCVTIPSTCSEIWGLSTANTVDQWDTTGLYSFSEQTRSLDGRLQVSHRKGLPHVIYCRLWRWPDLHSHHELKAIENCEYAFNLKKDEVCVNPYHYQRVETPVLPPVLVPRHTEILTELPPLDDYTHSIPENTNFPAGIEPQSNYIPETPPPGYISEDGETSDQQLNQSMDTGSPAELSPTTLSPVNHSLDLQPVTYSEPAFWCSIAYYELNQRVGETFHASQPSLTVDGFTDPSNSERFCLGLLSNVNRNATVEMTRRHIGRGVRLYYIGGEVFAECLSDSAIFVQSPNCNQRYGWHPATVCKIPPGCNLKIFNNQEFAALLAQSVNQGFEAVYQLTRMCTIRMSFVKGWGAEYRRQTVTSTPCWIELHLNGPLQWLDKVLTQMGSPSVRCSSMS
Procedure: FIGS. 1A-C. SH3 domain of sorting nexin 9 (SNX9) specifically binds pSmad3 and prevents nuclear import. (A) Cartoon depicting domains in full length (FL) SNX9 and constructs used for GST pull down assays. Lysates from AKR-2B cells untreated (−) or stimulated (+) for 45 minutes with 5 ng/mL TGFβ were incubated with GST beads or the indicated fusion polypeptides immobilized on GST beads. Bound polypeptides were eluted and assessed by Western analysis for pSmad3 or pSmad2. Cell lysate reflects signal obtained from 10 μg total protein. (B) AKR-2B cells were transduced for 90 minutes with the indicated concentrations of the TAT-SNX9(SH3) fusion polypeptides. Following washing and 1 hour TGFβ (5 ng/mL) treatment, nuclear fractions were isolated, and Western blotted for pSmad2, pSmad3, or histone deacetylase 1 (HDAC) (Left). Quantitation of nuclear pSmads was performed with Image J software and represents the mean+/−sd of two experiments (Right). (C) AKR-2B cells were transduced as in (B) with TAT-SH3 or TAT-LC (1.8 μM) and treated+/−TGFβ (5 ng/mL) for 1 hour. Immunofluorescence for Smad3 or the HA-tagged TAT-SNX9(SH3) fusion polypeptide was performed, and nuclei were stained with DAPI (Left panels). Quantitation of nuclear Smad3 from 30 cells in each of two experiments (Right).
AKR-2B cells were grown in DMEM supplemented with 10% fetal bovine serum (FBS). […]

[5] = system: Smad3 (3TP) reporter; test: Smad3 (3TP) luciferase reporter assay in AKR-2B cells; details: 1.5 μM polypeptide, 5 ng/mL TGFβ, 12 hours
Procedure: (§3) FIGS. 2A-C. TAT-SH3 inhibits Smad3-dependent responses. (A) AKR-2B cells were transiently transfected with a Smad3 (3TP), Smad2 (ARE), or Smad1/5/8 (BRE) reporter construct, and luciferase activity determined following 12 hours incubation in the absence (−) or presence (+) of the indicated ligand (5 ng/mL TGFβ; 10 ng/mL BMP4) or TAT-SNX9(SH3) fusion polypeptide (1.5 μM). Data represent the mean+/−SEM of three experiments. (B) RT-PCR analysis of Smad3 (PAI-1 and CTGF) and Smad2 (MMP2) responsive gene following 24 hour treatment of AKR-2B cells with the indicated concentration of TAT-SNX9(SH3) fusion polypeptide or 5 ng/mL TGFβ. Loading was verified by GAPDH expression. (C) Soft agar colony formation was performed following seven days growth in the presence (+) or absence (−) of TGFβ (10 ng/mL) or the indicated TAT-SNX9(SH3) fusion polypeptide (1.5 μM). Data reflects the mean+/−sd of triplicate wells from three experiments.
(§4) For luciferase assays, 2×10^5 cells were plated in six well plates containing 10% FBS/DMEM. […] Cells were harvested in 200 μL of reporter lysis buffer (Promega, Madison, Wis.), and luciferase activity was determined in a Berthold Lumat 9507 luminometer after normalization for transfection efficiency with β-galactosidase.

[6] = system: Smad2 (ARE) reporter; test: Smad2 (ARE) luciferase reporter assay in AKR-2B cells; details: 1.5 μM polypeptide, 5 ng/mL TGFβ, 12 hours
Procedure: as §3, §4

[7] = system: Smad1/5/8 (BRE) reporter; test: Smad1/5/8 BMP (BRE) luciferase reporter assay in AKR-2B cells; details: 1.5 μM polypeptide, 10 ng/mL BMP4, 12 hours
Procedure: as §3
FIGS. 4A-E. A point mutant of TAT-SH3-2 abolishes the inhibitory action on Smad3 responses. […] (E) AKR-2B cells were transiently transfected with a BMP (BRE), EGF (SRE), or PDGF (MMP-1) reporter construct and luciferase activity determined following 12 hour incubation in the absence (−) or presence (+) of the indicated ligand (10 ng/mL BMP4, EGF, or PDGF), inhibitor (10 μM Dorsomophin; 3 μM Lapatinib; 2 μM CP868) or TAT-SNX9(SH3) fusion polypeptide (1.5 μM). […]

[8] = system: Smad2 targets (MMP2, Goosecoid, Furin, MixL); test: RT-PCR/qPCR of Smad2 responsive genes in AKR-2B cells; details: 5 ng/mL TGFβ, 24 hours
Procedure: as §2, §1

Molecule | nuclear import of pSmad3 [1] | TGFβ induction of Smad3 targets / Smad3-dependent transcriptional responses [2] | TGFβ-stimulated anchorage-independent growth in soft agar (AIG) [3] | nuclear import of pSmad2 [4] | Smad3-dependent luciferase activity inhibited [5] | Smad2 signaling (luciferase) [6] | Smad1/5/8 (i.e., BMP) signaling (luciferase) [7] | induction of Smad2 targets [8]
TAT-LC: SNX9 LC (low complexity) domain fused to cell penetrating TAT polypeptide; negative control (protein, left off: a dimerising Fc or GST) DGKDQFSCGNSVADQAFLDSLSASTAQASSSAASNNHQVGSGNDPWSAWSASKSGNWESSEGWGAQPEGAGAQRNTNTPNNWDTAFGHPQAYQGPATGDDDDWDEDWDGPKSSSYFKDSESADAGGAQRGNSRASSSSMKI | ineffective in modulating nuclear translocation | inert | inert |  |  |  |  | 
TAT-SH3: TAT-SNX9(SH3) fusion polypeptide containing the full length SH3 domain (amino acids 1 to 62) (protein, left off: small tags and cut ends) MATKARVMYDFAAEPGNNELTVNEGEIITITNPDVGGGWLEGRNIKGERGLVPTDYVEILPS | inhibited nuclear import of pSmad3 in a dose-dependent manner | inhibited | inhibited | no effect | about 70% | no discernible effect | no discernible effect | unaffected
